Values quoted from earlier work in patent US6051590A, “Immunosuppressant tricyclic compounds” (Merck & Co., Inc., priority 1999, dated 2000).

Biological target: T1, Kv 1.3 channels (CHO cells transfected with Kv 1.3) (Homo sapiens, UniProt P22001)
T1 construct: expressed in transfected cells; host or cells: CHO cells
Details: stated in the method for the reference blocker

T1 sequence (P22001 whole entry): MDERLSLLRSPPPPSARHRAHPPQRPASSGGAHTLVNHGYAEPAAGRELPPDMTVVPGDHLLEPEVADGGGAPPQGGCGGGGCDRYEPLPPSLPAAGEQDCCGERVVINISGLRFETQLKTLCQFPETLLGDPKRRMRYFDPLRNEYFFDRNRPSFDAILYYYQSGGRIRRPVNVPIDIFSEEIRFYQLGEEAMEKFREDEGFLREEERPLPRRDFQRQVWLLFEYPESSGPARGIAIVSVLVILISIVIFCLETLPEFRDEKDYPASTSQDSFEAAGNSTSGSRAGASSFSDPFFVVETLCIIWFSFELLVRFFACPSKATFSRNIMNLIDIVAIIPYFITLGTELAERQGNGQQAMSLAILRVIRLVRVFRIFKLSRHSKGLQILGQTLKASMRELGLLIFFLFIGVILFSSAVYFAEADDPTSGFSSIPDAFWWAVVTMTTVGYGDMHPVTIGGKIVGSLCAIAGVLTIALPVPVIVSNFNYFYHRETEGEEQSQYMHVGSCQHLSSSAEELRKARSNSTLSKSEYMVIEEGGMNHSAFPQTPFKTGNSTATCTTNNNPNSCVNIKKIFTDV

In the case of “margatoxin (TIINVKCTSPKQCLPPCKAQFGQSAGAKCMNGKCKCYPH; UniProt P40755 1-39, looked up)”, the IC50 is listed as 0.1 nM.
